One experiment concerns FL HP1α. The experiment is described as follows: mass photometry, mixture of FL HP1α and FL KAP1 (Fig. 6g). As to the method: For MP assays shown in Fig. 6g–I and Supplementary Fig. 12, FL KAP1 and FL HP1α were expressed and purified as described[38],[67]. MP measurements were performed on a Refeyn OneMP instrument (Refeyn Ltd). The calibration was done with a native marker protein standard mix (NativeMark Unstained Protein Standard, Thermo Scientific), which contains proteins ranging from 20 to 1200 kDa. Coverslips (24 × 50 mm, No. 1.5H, Marienfeld) were cleaned by sequential sonication in Milli-Q water, isopropanol and Milli-Q-water, followed by drying with nitrogen. For each acquisition 2 μL of protein solution was applied to 18 μL of buffer (10 mM HEPES pH 7.5, 150 mM NaCl) in a gasket (CultureWellTM Reusable Gasket, Grace Bio-Labs) on a coverslip. To capture the movie, 400 nM HP1α was diluted 10× and 200 nM KAP1 was diluted 10× for a final concentration of 40 nM and 20 nM, respectively. The final molar ratios of HP1α:KAP1 were 1:0, 1:1 and 2:1. Movies were recorded at 999 Hz with an exposure time of 0.95 ms by using the AcquireMP software (Refeyn Ltd). All mass photometry movies were processed and analysed in the DiscoverMP software (Refeyn Ltd).

Experiment [1] relates to endogenous retroelements in KAP1 cKO ESCs. The experiment is described as follows: ATAC-seq chromatin accessibility. It counts as cell-based, mouse. The following applies: exogenous expression in KAP1 cKO ESCs, 2 μg/mL doxycycline, 2 μM 4-OHT 48 h. As to the method: ESCs were maintained under standard conditions on gelatin-coated plates at 37 °C at 5% CO2 in Knockout DMEM (Thermo Fisher) supplemented with NEAA, GlutaMAX, penicillin/streptomycin (Thermo Fisher), 15% ESC-screened fetal bovine serum (Hyclone), 0.1 mM 2-mercaptoethanol (Fisher), and leukemia-inhibitory factor (LIF). Generation of KAP1 cKO ESCs has been described previously. The piggybac transposon system was used to stably integrate transgenic Flag-tagged WT or V488E mutant KAP1 under control of an rtTA promoter (Systems Biosciences, PB-TRE-EGFP-EF1a-rtTA) into the inducible KAP1 cKO ESCs. Exogenous expression of WT or V488E mutant KAP1 was induced with 2 μg/mL doxycycline for 48 h and maintained in doxycycline prior to endogenous KAP1 deletion. KAP1 deletion was induced with 2 μM 4-OHT (Sigma) treatment for 48 h. […]
The modified ATAC-sequencing protocol Omni-ATAC was performed. […] Number of further PCR cycles required was determined using KAPA Library Quantification Kit (KK4854). […]
Quality of datasets was assessed using the FastQC tool. Raw reads were adapter and quality trimmed using Trimgalore. Trimmed reads were aligned to the mouse reference genome (mm10) with Bowtie2. Multimapping reads were randomly assigned. Optical duplicate reads were filtered using Picard (https://broadinstitute.github.io/picard/). Reads which mapped to the mitochondrial genome were removed with Samtools. […]

B1: FL KAP1: full-length KAP1 (KRAB-associated protein 1, TRIM28, TIF1β) (protein)
chain: MAASAAAASAAAASAASGSPGPGEGSAGGEKRSTAPSAAASASASAAASSPAGGGAEALELLEHCGVCRERLRPEREPRLLPCLHSACSACLGPAAPAAANSSGDGGAAGDGTVVDCPVCKQQCFSKDIVENYFMRDSGSKAATDAQDANQCCTSCEDNAPATSYCVECSEPLCETCVEAHQRVKYTKDHTVRSTGPAKSRDGERTVYCNVHKHEPLVLFCESCDTLTCRDCQLNAHKDHQYQFLEDAVRNQRKLLASLVKRLGDKHATLQKSTKEVRSSIRQVSDVQKRVQVDVKMAILQIMKELNKRGRVLVNDAQKVTEGQQERLERQHWTMTKIQKHQEHILRFASWALESDNNTALLLSKKLIYFQLHRALKMIVDPVEPHGEMKFQWDLNAWTKSAEAFGKIVAERPGTNSTGPAPMAPPRAPGPLSKQGSGSSQPMEVQEGYGFGSGDDPYSSAEPHVSGVKRSRSGEGEVSGLMRKVPRVSLERLDLDLTADSQPPVFKVFPGSTTEDYNLIVIERGAAAAATGQPGTAPAGTPGAPPLAGMAIVKEEETEAAIGAPPTATEGPETKPVLMALAEGPGAEGPRLASPSGSTSSGLEVVAPEGTSAPGGGPGTLDDSATICRVCQKPGDLVMCNQCEFCFHLDCHLPALQDVPGEEWSCSLCHVLPDLKEEDGSLSLDGADSTGVVAKLSPANQRKCERVLLALFCHEPCRPLHQLATDSTFSLDQPGGTLDLTLIRARLQEKLSPPYSSPQEFAQDVGRMFKQFNKLTEDKADVQSIIGLQRFFETRMNEAFGDTKFSAVLVEPPPMSLPGAGLSSQELSGGPGDGP
Consider B1, for which the “effect on oligomerization of HP1α” value in the experiment on FL HP1α is given as “Oligomerization of HP1α was further increased”. Further, in experiment [1], the “restoration of closed chromatin at IAPEz, MERVK10C and ETn” value is “able to partially restore closed chromatin at IAPEz, MERVK10C and ETn elements”.
